{
  "source": "patent US5968782",
  "target": "mouse fibrinogen (mouse) (UniProt E9PV24)",
  "data": [
    {"substance": "recombinant mMCP-7-FLAG (EK-activated mature mouse mast cell protease 7 with C-terminal FLAG peptide) (enzyme)", "values": [
      {"measurement": "fibrinogenolysis assay: time required for thrombin to clot mouse plasma", "value": "> 40", "unit": "s"}
    ]},
    {"substance": "thrombin (enzyme)", "values": [
      {"measurement": "time required for thrombin to clot mouse plasma (control)", "value": 15, "unit": "s"}
    ]}
  ]
}
